Assay results from paper PMC6245935, “Fructose-1,6-bisphosphate aldolase encoded by a core gene of Mycoplasma hyopneumoniae contributes to host cell adhesion” (Veterinary Research, 2018).

Biological target: fibronectin (UniProt P02751 32-2477)
Assay: SPR; BIAcore X100 Plus; fibronectin amine-coupled to CM5 chip (2868 RU); rFBA analyte 0-100 ug/mL in HBS-EP (10 mM HEPES, 150 mM NaCl, 3 mM EDTA, 0.05% P20), 30 uL/min, 180 s association, 1000 s dissociation, 20 °C
Conditions: both partners purified

fibronectin, sequence (P02751 32-2477): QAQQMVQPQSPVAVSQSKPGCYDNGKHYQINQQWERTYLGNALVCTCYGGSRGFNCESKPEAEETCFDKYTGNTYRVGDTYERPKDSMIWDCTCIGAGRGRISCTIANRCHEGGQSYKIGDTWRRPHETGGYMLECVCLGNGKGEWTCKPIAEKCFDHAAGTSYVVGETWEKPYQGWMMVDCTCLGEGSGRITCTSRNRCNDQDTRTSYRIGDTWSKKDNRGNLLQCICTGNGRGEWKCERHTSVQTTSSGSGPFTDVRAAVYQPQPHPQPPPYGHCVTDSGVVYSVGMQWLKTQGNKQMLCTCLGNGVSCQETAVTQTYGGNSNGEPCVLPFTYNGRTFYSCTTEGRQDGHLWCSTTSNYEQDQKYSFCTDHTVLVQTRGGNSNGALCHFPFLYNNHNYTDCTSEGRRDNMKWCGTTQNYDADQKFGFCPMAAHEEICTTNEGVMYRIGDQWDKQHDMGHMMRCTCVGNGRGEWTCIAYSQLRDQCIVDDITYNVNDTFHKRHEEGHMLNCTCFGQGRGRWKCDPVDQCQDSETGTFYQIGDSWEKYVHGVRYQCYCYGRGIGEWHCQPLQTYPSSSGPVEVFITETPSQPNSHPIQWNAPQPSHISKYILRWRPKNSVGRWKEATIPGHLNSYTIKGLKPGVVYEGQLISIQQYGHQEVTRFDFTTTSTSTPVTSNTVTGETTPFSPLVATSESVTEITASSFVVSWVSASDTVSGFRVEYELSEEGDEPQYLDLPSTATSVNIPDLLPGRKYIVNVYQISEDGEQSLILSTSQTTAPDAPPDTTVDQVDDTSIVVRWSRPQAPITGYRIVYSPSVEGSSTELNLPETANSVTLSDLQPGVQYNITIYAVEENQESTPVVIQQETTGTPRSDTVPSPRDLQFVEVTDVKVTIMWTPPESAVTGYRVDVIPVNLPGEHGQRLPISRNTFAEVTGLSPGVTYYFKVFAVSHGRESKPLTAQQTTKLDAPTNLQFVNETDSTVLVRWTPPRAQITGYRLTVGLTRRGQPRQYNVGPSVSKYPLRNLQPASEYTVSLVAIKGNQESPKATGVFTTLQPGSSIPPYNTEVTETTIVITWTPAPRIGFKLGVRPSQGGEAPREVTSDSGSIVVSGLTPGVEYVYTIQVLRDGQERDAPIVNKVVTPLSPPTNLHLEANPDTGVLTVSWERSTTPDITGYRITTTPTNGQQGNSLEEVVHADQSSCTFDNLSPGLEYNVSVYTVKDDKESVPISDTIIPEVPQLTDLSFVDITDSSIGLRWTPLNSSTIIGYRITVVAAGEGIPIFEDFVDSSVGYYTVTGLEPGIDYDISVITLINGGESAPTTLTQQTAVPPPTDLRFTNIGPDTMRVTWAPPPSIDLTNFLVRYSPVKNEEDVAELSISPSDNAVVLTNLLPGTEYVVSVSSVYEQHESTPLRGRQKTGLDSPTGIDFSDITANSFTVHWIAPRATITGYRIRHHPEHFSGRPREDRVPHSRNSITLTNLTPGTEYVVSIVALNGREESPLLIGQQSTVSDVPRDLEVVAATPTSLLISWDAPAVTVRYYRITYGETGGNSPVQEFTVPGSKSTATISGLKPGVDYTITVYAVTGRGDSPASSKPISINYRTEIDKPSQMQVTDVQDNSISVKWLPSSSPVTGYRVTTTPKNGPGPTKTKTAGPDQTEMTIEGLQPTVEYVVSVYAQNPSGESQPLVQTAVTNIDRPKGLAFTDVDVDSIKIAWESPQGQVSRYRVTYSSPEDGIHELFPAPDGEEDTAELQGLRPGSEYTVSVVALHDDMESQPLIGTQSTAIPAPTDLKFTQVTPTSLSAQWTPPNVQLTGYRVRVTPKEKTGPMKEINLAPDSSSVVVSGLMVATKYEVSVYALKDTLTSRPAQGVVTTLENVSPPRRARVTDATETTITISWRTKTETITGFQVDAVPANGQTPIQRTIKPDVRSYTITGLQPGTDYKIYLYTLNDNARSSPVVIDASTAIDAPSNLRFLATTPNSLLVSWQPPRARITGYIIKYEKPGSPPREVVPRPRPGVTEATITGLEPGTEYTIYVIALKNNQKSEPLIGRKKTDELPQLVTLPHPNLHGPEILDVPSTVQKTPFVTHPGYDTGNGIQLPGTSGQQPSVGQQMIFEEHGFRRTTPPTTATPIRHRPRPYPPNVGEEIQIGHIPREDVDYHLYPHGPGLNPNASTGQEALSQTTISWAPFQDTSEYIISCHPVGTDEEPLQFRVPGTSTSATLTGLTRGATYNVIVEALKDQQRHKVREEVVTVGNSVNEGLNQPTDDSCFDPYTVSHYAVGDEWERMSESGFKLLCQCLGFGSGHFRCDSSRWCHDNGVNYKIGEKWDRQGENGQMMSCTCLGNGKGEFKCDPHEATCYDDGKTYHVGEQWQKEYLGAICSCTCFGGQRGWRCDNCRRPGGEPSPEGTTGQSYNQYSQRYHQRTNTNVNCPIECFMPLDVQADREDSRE

B1: recombinant fructose-1,6-bisphosphate aldolase (rFBA) of Mycoplasma hyopneumoniae strain 168 (enzyme)
chain: MKTIISIAIDFLKNRESAHFSDIFLEVQTSLMSKWENQLPNLSTDKILTLKRGELYKLLSIDGNFVPLGDNYWTLRSDLNALVFFFFFFLKVFDCKKKKKKYRKGKMQLVNTKEMLEKALKNNYAIPHININNLEWTKAALLAAQAKKSPLIIGTSERVLTYMGGLKTIYNLVTNLIDYFKITVPVALHLDHGTYLTCKEALKNGYTSVMYDGSKEKFELNLERTEEIVRLANKVNATVEAEVGQIGGEEDGVIGNGEIANPENAKKITETGITCLAAGIGNIHGIYPPDWKSLNFEILEKISKVTKIPLVLHGGSGIPKDQIQKAIKLGIAKINVNTELQQANAAAISEFVLSGKVKQGKNFDPRKLLAPGTDAIQLLIEEKITEFGSANQA
notes: Fructose-1,6-bisphosphate aldolase (FBA) of Mycoplasma hyopneumoniae strain 168, full-length fba gene, locus MHP168_014, GenBank ADQ90241.1; The gene was cloned by site-directed mutation and overlap extension PCR 'due to the existence of rare codons'; also called fructose-bisphosphate aldolase; source: Escherichia coli BL21 (DE3), purified by Ni-chelating chromatography
  Kd: 468 ± 23 nM
  kon: 3470 ± 580 M⁻¹ s⁻¹
